Experimental data from publication PMC9482650, “Quantitative fragmentomics allow affinity mapping of interactomes” (Nature Communications, 2022).

What was measured:
Assay in all cases: holdup assay
Set-up in all cases: key: below the threshold = too weak to quantify, mostly under pKd 3.1 to 4
[1] = target: Inadl_3, Q8NI35
[2] = target: PDLIM1, O00151
[3] = target: T1, PDZD2_2, O15018
T1 sequence (O15018 329-429, limits assumed, looked up): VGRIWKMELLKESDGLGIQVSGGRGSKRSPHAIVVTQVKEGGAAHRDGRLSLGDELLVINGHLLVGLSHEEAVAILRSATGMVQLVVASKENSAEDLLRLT

[4] = target: DLG5_1, Q8TDM6
Sequence of DLG5_1, Q8TDM6 (Q8TDM6 617-713): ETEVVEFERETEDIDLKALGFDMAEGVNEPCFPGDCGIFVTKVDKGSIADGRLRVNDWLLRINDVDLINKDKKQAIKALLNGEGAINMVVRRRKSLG

[5] = target: T2, APBA2_1, Q99767
T2 sequence (Q99767 563-664, limits assumed, looked up): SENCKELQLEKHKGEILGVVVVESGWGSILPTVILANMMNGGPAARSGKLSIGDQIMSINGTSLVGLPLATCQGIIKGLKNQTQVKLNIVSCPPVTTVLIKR

[6] = target: T3, MPP6, Q9NZW5
T3 sequence (Q9NZW5 125-219, limits assumed, looked up): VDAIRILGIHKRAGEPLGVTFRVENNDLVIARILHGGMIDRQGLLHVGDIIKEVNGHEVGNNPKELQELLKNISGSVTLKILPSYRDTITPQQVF

[7] = target: T4, SNTB1, Q13884
T4 sequence (Q13884 107-205, limits assumed, looked up): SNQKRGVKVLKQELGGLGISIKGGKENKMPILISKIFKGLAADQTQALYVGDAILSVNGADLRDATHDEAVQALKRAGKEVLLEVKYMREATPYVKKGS

[8] = target: T5, APBA3_1, O96018
T5 sequence (O96018 389-490, limits assumed, looked up): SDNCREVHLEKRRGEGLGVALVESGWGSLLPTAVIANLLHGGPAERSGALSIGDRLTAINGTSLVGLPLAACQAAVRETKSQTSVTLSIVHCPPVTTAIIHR

[9] = target: DLG1_1, Q12959
[10] = target: T6, GRIP1_7, Q9Y3R0
T6 sequence (Q9Y3R0 999-1096, limits assumed, looked up): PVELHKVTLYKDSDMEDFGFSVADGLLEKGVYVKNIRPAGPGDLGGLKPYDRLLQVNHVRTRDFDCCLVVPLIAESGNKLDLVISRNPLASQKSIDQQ

[11] = target: T7, HTRA4, P83105
T7 sequence (P83105 378-476, limits assumed, looked up): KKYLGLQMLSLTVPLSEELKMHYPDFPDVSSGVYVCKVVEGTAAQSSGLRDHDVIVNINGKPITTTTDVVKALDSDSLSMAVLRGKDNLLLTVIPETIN

[12] = target: T8, RADIL, Q96JH8
T8 sequence (Q96JH8 971-1071, limits assumed, looked up): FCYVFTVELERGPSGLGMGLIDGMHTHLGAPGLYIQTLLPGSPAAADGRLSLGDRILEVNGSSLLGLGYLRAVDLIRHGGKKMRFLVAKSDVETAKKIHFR

[13] = target: LIMK2, P53671
Sequence of LIMK2, P53671 (P53671 143-248): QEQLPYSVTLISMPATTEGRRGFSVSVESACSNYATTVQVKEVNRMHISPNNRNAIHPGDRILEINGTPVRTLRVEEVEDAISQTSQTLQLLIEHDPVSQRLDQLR

[14] = target: DLG4_1, P78352
Sequence of DLG4_1, P78352 (P78352 62-152): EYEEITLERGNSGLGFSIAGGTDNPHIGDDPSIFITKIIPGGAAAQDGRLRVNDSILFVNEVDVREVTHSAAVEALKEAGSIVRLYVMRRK

[15] = target: TJP1_3, Q07157
Sequence of TJP1_3, Q07157 (Q07157 416-512): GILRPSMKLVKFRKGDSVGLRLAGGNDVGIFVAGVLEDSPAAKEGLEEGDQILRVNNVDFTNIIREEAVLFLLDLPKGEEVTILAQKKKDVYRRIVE

[16] = target: T9, TIAM2, Q8IVF5
T9 sequence (Q8IVF5 885-986, limits assumed, looked up): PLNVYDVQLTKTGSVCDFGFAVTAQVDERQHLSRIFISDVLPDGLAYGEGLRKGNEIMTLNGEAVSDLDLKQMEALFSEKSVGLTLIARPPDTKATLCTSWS

[17] = target: Inadl_5, Q8NI35
Sequence of Inadl_5, Q8NI35 (Q8NI35 673-780): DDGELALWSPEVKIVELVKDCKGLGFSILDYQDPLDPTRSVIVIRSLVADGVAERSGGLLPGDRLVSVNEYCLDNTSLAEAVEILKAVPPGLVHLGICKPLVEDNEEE

[18] = target: FRMPD2_2, Q68DX3
Sequence of FRMPD2_2, Q68DX3 (Q68DX3 944-1038): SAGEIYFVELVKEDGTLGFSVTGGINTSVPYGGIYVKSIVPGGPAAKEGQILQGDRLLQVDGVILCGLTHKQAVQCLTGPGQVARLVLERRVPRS

[19] = target: T10, SNTG1, Q9NSN8
T10 sequence (Q9NSN8 52-150, limits assumed, looked up): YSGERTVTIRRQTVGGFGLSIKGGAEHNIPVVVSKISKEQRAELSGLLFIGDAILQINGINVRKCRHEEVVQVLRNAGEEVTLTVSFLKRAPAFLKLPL

[20] = target: GRIP2_5, Q9C0E4
Sequence of GRIP2_5, Q9C0E4 (Q9C0E4 544-642): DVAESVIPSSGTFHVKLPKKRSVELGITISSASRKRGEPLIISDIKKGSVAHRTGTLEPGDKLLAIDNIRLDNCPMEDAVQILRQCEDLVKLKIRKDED

[21] = target: GRIP2_6, Q9C0E4
Sequence of GRIP2_6, Q9C0E4 (Q9C0E4 648-740): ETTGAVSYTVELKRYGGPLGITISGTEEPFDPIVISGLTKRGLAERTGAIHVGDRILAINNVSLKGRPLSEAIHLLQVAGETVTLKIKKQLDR

[22] = target: T11, RAPGEF6, Q8TEU7
T11 sequence (Q8TEU7 525-625, limits assumed, looked up): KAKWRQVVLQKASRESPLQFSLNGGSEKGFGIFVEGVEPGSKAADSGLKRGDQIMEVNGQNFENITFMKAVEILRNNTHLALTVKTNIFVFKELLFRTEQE

[23] = target: T12, LNX2_3, Q8N448
T12 sequence (Q8N448 463-564, limits assumed, looked up): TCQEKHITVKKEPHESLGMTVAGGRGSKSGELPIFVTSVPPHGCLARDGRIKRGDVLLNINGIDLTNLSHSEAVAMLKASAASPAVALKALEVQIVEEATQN

[24] = target: Inadl_2, Q8NI35
Sequence of Inadl_2, Q8NI35 (Q8NI35 238-335): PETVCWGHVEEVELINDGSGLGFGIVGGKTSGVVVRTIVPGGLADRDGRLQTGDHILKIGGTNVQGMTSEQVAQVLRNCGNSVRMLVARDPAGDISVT

[25] = target: GRIP2_4, Q9C0E4
Sequence of GRIP2_4, Q9C0E4 (Q9C0E4 446-548): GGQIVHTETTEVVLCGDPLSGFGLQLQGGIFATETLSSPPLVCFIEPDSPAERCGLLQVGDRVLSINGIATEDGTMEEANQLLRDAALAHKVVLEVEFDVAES

[26] = plain residues with an end cap or a label only (N-terminal biotin on a linker: ado-ado)
[27] = modified: phospho on T at position -2 from the C-terminal residue

Sequence of Inadl_3, Q8NI35 (Q8NI35 359-469): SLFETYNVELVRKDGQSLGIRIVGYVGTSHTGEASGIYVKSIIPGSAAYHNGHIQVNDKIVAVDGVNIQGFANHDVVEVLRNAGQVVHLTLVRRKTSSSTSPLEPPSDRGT
Sequence of PDLIM1, O00151 (O00151 1-87): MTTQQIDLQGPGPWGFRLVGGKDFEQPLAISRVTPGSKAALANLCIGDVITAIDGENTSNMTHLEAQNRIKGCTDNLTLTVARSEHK

## RRRESYSTTV [EVI5, O60447]
[1]; [26]
  pKd: 3.99
[2]; [26]
  pKd: below the threshold
[3]; [26]
  pKd: 4.7
[4]; [26]
  pKd: below the threshold
[5]; [26]
  pKd: below the threshold
[6]; [26]
  pKd: below the threshold
[7]; [26]
  pKd: 4.65
[8]; [26]
  pKd: below the threshold
[9]; [26]
  pKd: 5.66
[10]; [26]
  pKd: below the threshold
[11]; [26]
  pKd: 4.08
[12]; [26]
  pKd: 4.8
[13]; [26]
  pKd: below the threshold
[14]; [26]
  pKd: 5.79
[15]; [26]
  pKd: below the threshold
[16]; [26]
  pKd: below the threshold
[17]; [26]
  pKd: 3.63
[18]; [26]
  pKd: 3.74
[19]; [26]
  pKd: 3.63
[20]; [26]
  pKd: below the threshold
[21]; [26]
  pKd: 4.61
[22]; [26]
  pKd: below the threshold
[23]; [26]
  pKd: below the threshold
[24]; [26]
  pKd: below the threshold
[25]; [26]
  pKd: below the threshold

## SKPTRRETEV [HPV35-E6_-2P, P27228]
[1]; [27]
  pKd: below the threshold
[2]; [27]
  pKd: below the threshold
[3]; [27]
  pKd: below the threshold
[4]; [27]
  pKd: below the threshold
[5]; [27]
  pKd: below the threshold
[6]; [27]
  pKd: 3.78
[7]; [27]
  pKd: below the threshold
[8]; [27]
  pKd: below the threshold
[9]; [27]
  pKd: below the threshold
[10]; [27]
  pKd: below the threshold
[11]; [27]
  pKd: below the threshold
[12]; [27]
  pKd: below the threshold
[13]; [27]
  pKd: below the threshold
[14]; [27]
  pKd: below the threshold
[15]; [27]
  pKd: below the threshold
[16]; [27]
  pKd: below the threshold
[17]; [27]
  pKd: below the threshold
[18]; [27]
  pKd: below the threshold
[19]; [27]
  pKd: below the threshold
[20]; [27]
  pKd: below the threshold
[21]; [27]
  pKd: below the threshold
[22]; [27]
  pKd: below the threshold
[23]; [27]
  pKd: below the threshold
[24]; [27]
  pKd: below the threshold
[25]; [27]
  pKd: below the threshold

## LRSPRTPSEV [OR10G3, Q8NGC4]
[1]; [26]
  pKd: below the threshold
[2]; [26]
  pKd: below the threshold
[3]; [26]
  pKd: 3.95
[4]; [26]
  pKd: below the threshold
[5]; [26]
  pKd: below the threshold
[6]; [26]
  pKd: below the threshold
[7]; [26]
  pKd: below the threshold
[8]; [26]
  pKd: below the threshold
[9]; [26]
  pKd: below the threshold
[10]; [26]
  pKd: below the threshold
[11]; [26]
  pKd: 4
[12]; [26]
  pKd: below the threshold
[13]; [26]
  pKd: below the threshold
[14]; [26]
  pKd: 3.49
[15]; [26]
  pKd: below the threshold
[16]; [26]
  pKd: below the threshold
[17]; [26]
  pKd: 4.73
[18]; [26]
  pKd: below the threshold
[19]; [26]
  pKd: below the threshold
[20]; [26]
  pKd: below the threshold
[21]; [26]
  pKd: below the threshold
[22]; [26]
  pKd: below the threshold
[23]; [26]
  pKd: below the threshold
[24]; [26]
  pKd: below the threshold
[25]; [26]
  pKd: below the threshold
